In test [1] the target is human VEGFA (human) (UniProt P15692). Nature of the test: blocking ELISA: VEGFR2 coated, biotinylated VEGFA with antibody dilutions (FIG. 6). For orientation: An ELISA detects its analyte on a solid surface through an enzyme-linked reagent.
For test [2] the target is unchanged. The experiment in a line: cell-based or functional assay.

Sequence of human VEGFA (human) (P15692 other isoform, or with tags, fused parts or gaps limits assumed): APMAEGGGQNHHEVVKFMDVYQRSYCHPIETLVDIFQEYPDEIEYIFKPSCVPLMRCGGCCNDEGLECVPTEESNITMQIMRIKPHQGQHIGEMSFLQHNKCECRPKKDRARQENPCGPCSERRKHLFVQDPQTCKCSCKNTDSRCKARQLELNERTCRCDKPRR
Sequence of Conbercept (Fc fusion) (chain): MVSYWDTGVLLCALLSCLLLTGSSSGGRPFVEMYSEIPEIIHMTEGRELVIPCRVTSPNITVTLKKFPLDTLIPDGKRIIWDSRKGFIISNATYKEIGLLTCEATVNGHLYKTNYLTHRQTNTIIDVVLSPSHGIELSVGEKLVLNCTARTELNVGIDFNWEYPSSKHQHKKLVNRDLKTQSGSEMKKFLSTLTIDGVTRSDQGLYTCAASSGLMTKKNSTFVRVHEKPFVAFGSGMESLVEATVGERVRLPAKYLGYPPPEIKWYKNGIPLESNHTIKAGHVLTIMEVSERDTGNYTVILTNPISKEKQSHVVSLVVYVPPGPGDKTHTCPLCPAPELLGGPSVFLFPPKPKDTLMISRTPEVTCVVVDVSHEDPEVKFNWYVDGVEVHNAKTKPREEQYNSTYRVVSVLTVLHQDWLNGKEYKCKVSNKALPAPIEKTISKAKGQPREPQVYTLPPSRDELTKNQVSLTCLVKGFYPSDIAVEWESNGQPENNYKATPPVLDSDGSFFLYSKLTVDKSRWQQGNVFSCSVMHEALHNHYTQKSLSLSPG
Sequence of Eylea (Aflibercept) (Fc fusion) (chain): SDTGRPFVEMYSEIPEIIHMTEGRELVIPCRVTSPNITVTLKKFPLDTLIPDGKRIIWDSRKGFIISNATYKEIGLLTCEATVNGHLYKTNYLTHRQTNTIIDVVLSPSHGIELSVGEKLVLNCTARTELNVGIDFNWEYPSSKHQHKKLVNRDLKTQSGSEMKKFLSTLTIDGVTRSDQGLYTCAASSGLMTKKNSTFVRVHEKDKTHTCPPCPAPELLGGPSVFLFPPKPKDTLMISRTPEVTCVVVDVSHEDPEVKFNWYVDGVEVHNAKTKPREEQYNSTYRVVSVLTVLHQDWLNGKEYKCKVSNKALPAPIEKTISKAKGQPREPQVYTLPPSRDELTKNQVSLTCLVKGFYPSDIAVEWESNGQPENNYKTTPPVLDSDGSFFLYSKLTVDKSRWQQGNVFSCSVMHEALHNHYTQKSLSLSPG

As usually defined, the IC50 is the concentration at which inhibition is half-maximal. Read a high IC50 as weaker potency in that assay. Conbercept (Fc fusion) displayed an IC50 in the test with human VEGFA (human) [1] of 0.088 µg/mL. Also, the inhibitory effect on HUVEC cell proliferation, IC50 with human VEGFA (human) [2] was 0.13 µg/mL.

Take Eylea (Aflibercept) (Fc fusion): in the test with human VEGFA (human) [1], the IC50 is 0.085 µg/mL. The substance further came in with an inhibitory effect on HUVEC cell proliferation, IC50 in the test with human VEGFA (human) [2] of 0.066 µg/mL.
